Assay [1] has as its target T1, recombinant Flag-RecQL4 (human, UniProt O94761 1-1208).
T1 construct: also called purified Flag-RecQL4; source: E. coli (BL21 in the results; Rosetta (DE3) in the methods), IPTG-induced, purified
T1 sequence (looked up): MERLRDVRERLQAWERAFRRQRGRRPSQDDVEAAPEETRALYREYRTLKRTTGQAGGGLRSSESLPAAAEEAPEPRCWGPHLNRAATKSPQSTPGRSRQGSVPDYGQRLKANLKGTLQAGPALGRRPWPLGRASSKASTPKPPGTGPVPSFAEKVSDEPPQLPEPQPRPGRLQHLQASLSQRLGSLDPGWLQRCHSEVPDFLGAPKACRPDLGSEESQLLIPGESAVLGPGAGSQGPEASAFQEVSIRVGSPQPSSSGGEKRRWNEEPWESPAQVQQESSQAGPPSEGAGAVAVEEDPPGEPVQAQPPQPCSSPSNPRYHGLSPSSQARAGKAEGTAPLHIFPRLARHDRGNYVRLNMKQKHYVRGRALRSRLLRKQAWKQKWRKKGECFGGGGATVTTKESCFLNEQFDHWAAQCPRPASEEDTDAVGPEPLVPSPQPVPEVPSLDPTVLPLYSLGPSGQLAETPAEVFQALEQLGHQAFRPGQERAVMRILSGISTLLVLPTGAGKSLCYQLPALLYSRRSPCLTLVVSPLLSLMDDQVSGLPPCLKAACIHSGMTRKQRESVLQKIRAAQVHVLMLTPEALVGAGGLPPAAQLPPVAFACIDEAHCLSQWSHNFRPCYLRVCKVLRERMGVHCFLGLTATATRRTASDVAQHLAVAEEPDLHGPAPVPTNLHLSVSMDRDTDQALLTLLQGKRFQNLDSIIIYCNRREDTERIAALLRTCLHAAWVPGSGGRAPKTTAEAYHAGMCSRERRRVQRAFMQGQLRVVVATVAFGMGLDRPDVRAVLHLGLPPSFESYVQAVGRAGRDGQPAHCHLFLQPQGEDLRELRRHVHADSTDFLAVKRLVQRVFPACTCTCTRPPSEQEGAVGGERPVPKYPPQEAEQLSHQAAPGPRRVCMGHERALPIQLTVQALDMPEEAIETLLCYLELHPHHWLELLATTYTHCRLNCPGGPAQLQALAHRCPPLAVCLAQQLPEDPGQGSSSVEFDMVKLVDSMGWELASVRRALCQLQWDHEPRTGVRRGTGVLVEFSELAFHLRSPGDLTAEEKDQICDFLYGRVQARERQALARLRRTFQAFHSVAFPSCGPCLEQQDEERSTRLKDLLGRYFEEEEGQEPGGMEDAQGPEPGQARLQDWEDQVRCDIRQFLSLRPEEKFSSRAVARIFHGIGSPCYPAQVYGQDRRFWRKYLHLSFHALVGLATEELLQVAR
The assay is described as follows: pull-down; GST fusion protein immobilised on glutathione Sepharose 4B at 4 °C overnight, incubated with purified Flag-RecQL4 at 4 °C for 4 h; western blot. To be noted: both partners purified. Background: In western blotting, separated proteins are transferred to a membrane and probed.

For assay [2], the target named is T1, recombinant Flag-RecQL4. In words: pull-down; Flag-RecQL4 immobilised on M2 beads at 4 °C overnight, GST fusion proteins added at 4 °C for 4 h; GST-RNF8 with increasing input of GST-WRAP53β; western blot. To be noted: both partners purified.

B1: GST-WRAP53β (natural protein)
chain: not shown
notes: WRAP53β; also called purified recombinant GST-WRAP53β; source: E. coli, purified (GST beads)
Consider B1, for which the binding result in the assay with recombinant Flag-RecQL4 [1] was “binds”.

B2: GST-RNF8 (natural protein, UniProt O76064-1 1-485, looked up)
chain: MGEPGFFVTGDRAGGRSWCLRRVGMSAGWLLLEDGCEVTVGRGFGVTYQLVSKICPLMISRNHCVLKQNPEGQWTIMDNKSLNGVWLNRARLEPLRVYSIHQGDYIQLGVPLENKENAEYEYEVTEEDWETIYPCLSPKNDQMIEKNKELRTKRKFSLDELAGPGAEGPSNLKSKINKVSCESGQPVKSQGKGEVASTPSDNLDPKLTALEPSKTTGAPIYPGFPKVTEVHHEQKASNSSASQRSLQMFKVTMSRILRLKIQMQEKHEAVMNVKKQTQKGNSKKVVQMEQELQDLQSQLCAEQAQQQARVEQLEKTFQEEEQHLQGLEIAQGEKDLKQQLAQALQEHWALMEELNRSKKDFEAIIQAKNKELEQTKEEKEKMQAQKEEVLSHMNDVLENELQCIICSEYFIEAVTLNCAHSFCSYCINEWMKRKIECPICRKDIKSKTYSLVLDNCINKMVNNLSSEVKERRIVLIRERKAKRLF
notes: RNF8; also called purified recombinant GST-RNF8; source: E. coli BL21, purified (GST beads)
For the molecule B2, in the assay with recombinant Flag-RecQL4 [2], the binding result is “binds”.

Source of the values: paper PMC7935965, “RNF8 ubiquitinates RecQL4 and promotes its dissociation from DNA double strand breaks” (Oncogenesis, 2021).
